From publication PMC3218054, “Characterisation of the Interaction of the C-Terminus of the Dopamine D2 Receptor with Neuronal Calcium Sensor-1” (PLoS ONE, 2011) come the findings set out here.

The experiment addresses T1, Neuronal calcium sensor-1 (NCS-1), Rattus norvegicus, wild type (Rattus norvegicus, UniProt P62168 1-190).
T1 construct: NCS-1, Rattus norvegicus; cDNA GenBank L27421; sub-cloned into pET-M11; 15N or 15N,13C labelled for NMR; Monomeric by SEC-MALS; also called wild type NCS-1; source: E. coli BL21 (DE3), purified (Phenyl FF hydrophobic column, TEV cleavage, Superdex 75); not shown: His tag, N-terminal, cleaved
Briefly: other fluorescence titration; intrinsic tryptophan fluorescence of 1 µM NCS-1 (excitation 280 nm, emission 290-410 nm), peptide added stepwise; 20 mM HEPES, 139 mM NaCl, 2 mM ATP, 5 mM EGTA, 5 mM nitrilotriacetic acid, pH 7.4, 1 µM free Ca2+; room temperature; logistic fit. Conditions: both partners purified.

T1 sequence (P62168 whole entry): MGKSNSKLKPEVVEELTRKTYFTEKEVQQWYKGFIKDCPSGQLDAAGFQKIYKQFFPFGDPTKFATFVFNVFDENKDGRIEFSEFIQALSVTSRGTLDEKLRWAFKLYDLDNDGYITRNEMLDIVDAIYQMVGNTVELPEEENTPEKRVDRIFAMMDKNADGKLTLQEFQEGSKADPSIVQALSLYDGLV

B1: D2 peptide, residues 428-443 of the human dopamine D2 receptor (peptide)
peptide: TFNIEFRKAFLKILHC
notes: dopamine D2 receptor, human, residues 428-443, cytoplasmic C-terminal tail; Dissolved first in a minimal amount of DMSO; also called D2 (428-443); dopamine D2 receptor C-terminus; source: synthetic peptide, bought: Peptide Protein Research Ltd
For B1, the EC50 – broadly, the concentration needed to bring the measured effect to its halfway point – amounted to 14.3 µM and the stoichiometry N (in general, a count of units in the complex or per binding partner) is 2 peptide per NCS-1.
